Assay [1] deals with HLA-A*11:01. Kind of assay: IEDB peptide-MHC binding, purified MHC/competitive/fluorescence; filed as Kd, often an IC50 or EC50 that approximates it; ≥ and ≤ were set here for values at or beyond the usual limits of such assays.
Assay [2] addresses HLA-A*02:01. The description is as above. The note with it: source organism: Corynebacterium glutamicum ATCC 13032.
In assay [3] the target is HLA-B*07:02. The description is as above. The note with it: source organism: Corynebacterium glutamicum ATCC 13032.
For another assay, the target named is HLA-A*02:12. Described as above. The conditions noted are these: source organism: Corynebacterium glutamicum ATCC 13032.
Assay [4] deals with HLA-B*27:05. The assay is described as above. The conditions noted are these: source organism: Corynebacterium glutamicum ATCC 13032.
The next assay concerns the target HLA-A*26:01. Described as above.
In the next assay the target is HLA-A*30:01. Described as above. The conditions noted are these: source organism: Corynebacterium glutamicum ATCC 13032.
The target in a further assay is HLA-A*24:02. The description is as above. The note with it: source organism: Corynebacterium glutamicum ATCC 13032.
Assay [5] deals with HLA-B*15:01. Described as above. The conditions noted are these: source organism: Corynebacterium glutamicum ATCC 13032.
The next assay addresses HLA-A*02:11. The description is as above. The conditions noted are these: source organism: Corynebacterium glutamicum ATCC 13032.
In the next assay the target is HLA-A*02:50. The assay is described as above. The conditions noted are these: source organism: Corynebacterium glutamicum ATCC 13032.
In assay [6] the target is HLA-B*35:01. The assay is described as above. The conditions noted are these: source organism: Corynebacterium glutamicum ATCC 13032.
Assay [7] has as its target HLA-B*58:01. Described as above. The note with it: source organism: Corynebacterium glutamicum ATCC 13032.
For assay [8], the target named is HLA-A*31:01. The assay is described as above. The note with it: source organism: Corynebacterium glutamicum ATCC 13032.
A further assay addresses HLA-A*02:03. The assay is described as above. The conditions noted are these: source organism: Corynebacterium glutamicum ATCC 13032.
Assay [9] addresses HLA-A*01:01. The assay is described as above. The note with it: source organism: Corynebacterium glutamicum ATCC 13032.
The target in the next assay is HLA-A*02:19. The description is as above. The conditions noted are these: source organism: Corynebacterium glutamicum ATCC 13032.
For another assay, the target named is HLA-A*03:01. Described as above. The note with it: source organism: Corynebacterium glutamicum ATCC 13032.
Another assay deals with HLA-A*02:16. The assay is described as above. The note with it: source organism: Corynebacterium glutamicum ATCC 13032.
Assay [10] has as its target HLA-B*46:01. Described as above. The note with it: source organism: Corynebacterium glutamicum ATCC 13032.
Another assay concerns the target HLA-B*40:01. Described as above. The conditions noted are these: source organism: Corynebacterium glutamicum ATCC 13032.
Another assay concerns the target HLA-B*18:01. The description is as above. The note with it: source organism: Corynebacterium glutamicum ATCC 13032.
A further assay addresses HLA-A*02:06. Described as above. The conditions noted are these: source organism: Corynebacterium glutamicum ATCC 13032.
In assay [11] the target is HLA-A*02:01. Kind of assay: IEDB peptide-MHC binding, purified MHC/direct/fluorescence; filed as Kd, often an IC50 or EC50 that approximates it; ≥ and ≤ were set here for values at or beyond the usual limits of such assays.
For assay [12], the target named is HLA-B*07:02. The assay is described as above.
A further assay addresses HLA-B*15:09. The assay is described as above. The conditions noted are these: source organism: Yersinia pestis KIM10+.
Assay [13] concerns the target HLA-B*27:05. The assay is described as above.
Assay [14] concerns the target HLA-B*15:01. The description is as above.
A further assay concerns the target HLA-B*48:01. Described as above.
Assay [15] has as its target HLA-B*35:01. The assay is described as above. The conditions noted are these: source organism: Yersinia pestis KIM10+.
In assay [16] the target is HLA-B*58:01. The assay is described as above.
The target of a further assay is HLA-B*15:02. Described as above.
The target in assay [17] is HLA-A*31:01. The description is as above.
For assay [18], the target named is HLA-A*01:01. The description is as above.
The next assay has as its target HLA-B*08:02. The description is as above.
The target of assay [19] is HLA-B*46:01. The assay is described as above.
For a further assay, the target named is HLA-B*39:01. Described as above. The conditions noted are these: source organism: Yersinia pestis KIM10+.
Assay [20] has as its target HLA-A*11:01. The assay is described as above. The note with it: source organism: Camelpox virus M-96.
The next assay concerns the target HLA-B*57:01. The description is as above. The conditions noted are these: source organism: Camelpox virus M-96.
In another assay the target is HLA-A*26:03. Described as above. The conditions noted are these: source organism: Variola virus.
The target of the next assay is HLA-A*69:01. The description is as above. The conditions noted are these: source organism: Camelpox virus M-96.
The next assay deals with HLA-A*68:02. The description is as above. The conditions noted are these: source organism: Camelpox virus M-96.
The target of another assay is HLA-B*15:03. Kind of assay: IEDB peptide-MHC binding, purified MHC/competitive/radioactivity; filed as Kd, often an IC50 or EC50 that approximates it; ≥ and ≤ were set here for values at or beyond the usual limits of such assays. The note with it: source organism: Vaccinia virus WR.
A further assay deals with HLA-B*15:17. Kind of assay: IEDB peptide-MHC binding, purified MHC/competitive/fluorescence; filed as Kd, often an IC50 or EC50 that approximates it; ≥ and ≤ were set here for values at or beyond the usual limits of such assays. The note with it: source organism: Vaccinia virus WR.
The target of a further assay is HLA-A*26:02. The description is as above. The conditions noted are these: source organism: Vaccinia virus WR.
[21] abbreviates: source organism: Corynebacterium glutamicum ATCC 13032.
The mark [22] stands for this setting: source organism: Yersinia pestis.
The mark [23] stands for this setting: source organism: Yersinia pestis KIM10+.
Where [24] appears, read: source organism: Camelpox virus M-96.

A value given as a limit tells only on which side of the number the result lay.

For the sequence HLPELIWRS, the Kd – broadly, the concentration at which binding is half-saturated – with HLA-A*11:01 [1] (setting [21]) was no less than 20 µM; in the assay with HLA-A*02:01 [2], 0.976 µM; in the assay with HLA-B*07:02 [3], no less than 20 µM; with HLA-A*02:12 it was 0.8 µM; with HLA-B*27:05 [4] it was no less than 20 µM; with HLA-A*26:01 (setting [21]), no less than 20 µM. Moreover, the dissociation constant Kd in the assay with HLA-A*30:01 is no less than 20 µM; in the assay with HLA-A*24:02 it was no less than 20 µM; with HLA-B*15:01 [5], no less than 20 µM; in the assay with HLA-A*02:11, 0.0267 µM; with HLA-A*02:50, 0.0136 µM; with HLA-B*35:01 [6], no less than 20 µM. Besides, the Kd is no less than 20 µM with HLA-B*58:01 [7]; no less than 20 µM in the assay with HLA-A*31:01 [8]; 0.95 µM with HLA-A*02:03; no less than 20 µM with HLA-A*01:01 [9]; no less than 20 µM with HLA-A*02:19; no less than 20 µM with HLA-A*03:01. Also, the Kd in the assay with HLA-A*02:16 is 0.097 µM; with HLA-B*46:01 [10], no less than 20 µM; with HLA-B*40:01, no less than 20 µM; with HLA-B*18:01, no less than 20 µM; in the assay with HLA-A*02:06 it was 0.0022 µM.

Regarding STFAASGPF, the Kd was no less than 20 µM in the assay with HLA-A*02:01 [11] (setting [22]); no less than 20 µM in the assay with HLA-B*07:02 [12] (setting [22]); no less than 20 µM with HLA-B*15:09; no less than 20 µM with HLA-B*27:05 [13] (setting [22]); 0.007 µM in the assay with HLA-B*15:01 [14] (setting [22]); no less than 20 µM in the assay with HLA-B*48:01 (setting [22]). Besides, the dissociation constant (Kd) with HLA-B*35:01 [15] is 0.045 µM; with HLA-B*58:01 [16] (setting [22]) it was no less than 20 µM; with HLA-B*15:02 (setting [23]), 0.009 µM; in the assay with HLA-A*31:01 [17] (setting [22]) it was no less than 20 µM; in the assay with HLA-A*01:01 [18] (setting [22]), no less than 20 µM; with HLA-B*08:02 (setting [23]), no less than 20 µM. Besides, the Kd is 6.19 µM in the assay with HLA-B*46:01 [19] (setting [22]), no less than 20 µM with HLA-B*39:01, no less than 20 µM with HLA-A*11:01 [1] (setting [23]) and 0.0192 µM in the assay with HLA-A*26:01 (setting [23]).

As for YQYIFLSFF, the Kd with HLA-A*11:01 [20], with HLA-A*02:01 [11] (setting [24]), with HLA-B*57:01, with HLA-B*07:02 [12] (setting [24]), with HLA-B*27:05 [13] (setting [24]) and with HLA-A*26:03 was no less than 20 µM throughout. Moreover, the Kd in the assay with HLA-B*15:01 [14] (setting [24]) was 3.06 µM; with HLA-B*48:01 (setting [24]) it was no less than 20 µM; in the assay with HLA-A*69:01, no less than 20 µM; with HLA-B*58:01 [16] (setting [24]), no less than 20 µM; with HLA-B*15:02 (source organism: Variola virus), 1.94 µM; with HLA-A*31:01 [17] (setting [24]) it was no less than 20 µM. Further, the Kd was no less than 20 µM with HLA-A*01:01 [18] (setting [24]); no less than 20 µM with HLA-B*08:02 (source organism: Variola virus); no less than 20 µM in the assay with HLA-A*68:02; no less than 20 µM with HLA-B*46:01 [19] (setting [24]); 0.000944 µM with HLA-B*15:03; no less than 20 µM with HLA-B*15:17. This sequence also showed a Kd with HLA-A*26:02 of no less than 20 µM.

These data come from the Immune Epitope Database (IEDB).
